{"source": "paper PMC6294567", "about": "“The C-terminal D/E-rich domain of MBD3 is a putative Z-DNA mimic that competes for Zα DNA-binding activity” (Nucleic Acids Research, 2018)", "molecules": {"B1": {"name": "MBD domain: MBD domain of MBD3; residues 1–72 (protein)", "chain": "MERKRWECPALPQGWEREEVPRRSGLSAGHRDVFYYSPSGKKFRSKPQLARYLGGSMDLSTFDFRTGKMLMS", "modifications": "left off: His6, N-terminal, cleaved"}, "B2": {"name": "MBDDE (MBD domain of MBD3 connected to the acidic tail; residues 263–291), tag-free (domain or fragment, human, UniProt O95983-1 1-72, looked up)", "chain": "MERKRWECPALPQGWEREEVPRRSGLSAGHRDVFYYSPSGKKFRSKPQLARYLGGSMDLSTFDFRTGKMLMSDKACAEDDDEEDEEEEEEEPDPDPEMEHV", "notes": "MBD domain of human MBD3; its limits (1-72) are those printed for the MBD3MBD construct; No linker between the two stretches is mentioned; The protein was partly degraded from the C-terminal disordered region by mass spectrometry; source: E. coli BL21(DE3), purified (Ni-NTA, TEV cleavage, reverse Ni-NTA, gel filtration); not shown: His6, N-terminal, cleaved"}, "B3": {"name": "MBDDE: MBD domain of MBD3 connected to the acidic tail; residues 263–291 (protein)", "chain": "B2 chain", "modifications": "left off: His6, N-terminal, cleaved"}, "B4": {"name": "MBD3 (full-length human MBD3; residue 1–291), tag-free, O95983-1 1-291 (natural protein)", "chain": "MERKRWECPALPQGWEREEVPRRSGLSAGHRDVFYYSPSGKKFRSKPQLARYLGGSMDLSTFDFRTGKMLMSKMNKSRQRVRYDSSNQVKGKPDLNTALPVRQTASIFKQPVTKITNHPSNKVKSDPQKAVDQPRQLFWEKKLSGLNAFDIAEELVKTMDLPKGLQGVGPGCTDETLLSAIASALHTSTMPITGQLSAAVEKNPGVWLNTTQPLCKAFMVTDEDIRKQEELVQQVRKRLEEALMADMLAHVEELARDGEAPLDKACAEDDDEEDEEEEEEEPDPDPEMEHV"}, "B5": {"name": "FLAG-MBD3: FLAG-tagged full-length MBD3 transiently expressed in 293F cells (protein)", "chain": "B4 chain", "modifications": "left off: FLAG, end not stated, kept", "notes": "FLAG-tagged full-length MBD3 transiently expressed in 293F cells"}}, "key": {"[1]": {"molecular_target": "Zα, tag-free (Z-DNA binding domain of human ADAR1, residues 133-209) (human) (UniProt P55265)", "assay": "fluorescence polarisation; competition: unlabelled peptide added to the pre-incubated mixture of Zα and 6-FAM-d(CG)6 duplex; 20 mM HEPES-NaOH pH 7.5, 50 mM NaCl, 1 mM DTT; dose-response (variable slope) model"}, "[2]": {"molecular_target": "MBDDE (MBD domain of MBD3 connected to the acidic tail; residues 263–291), tag-free (human) (UniProt O95983)", "assay": "SEC; Zα (400 μM) and MBDDE (100 μM), or Zα and MBD under the same conditions, 4:1 molar ratio; 20 mM Tris-HCl pH 7.5, 50 mM NaCl, 1 mM TCEP; Superdex 75 10/300 GL; fractions on SDS-PAGE"}, "[3]": {"molecular_target": "T1, Zα and 6-FAM-d(CG)6 duplex (Homo sapiens, UniProt P55265)", "T1 construct": "Zα of human ADAR1; residues 133–209; His6 (pMCSG7, followed by a TEV site) (N, cleaved yes); made in house; host or cells: E. coli BL21(DE3)", "T1 sequence (P55265 133-209)": "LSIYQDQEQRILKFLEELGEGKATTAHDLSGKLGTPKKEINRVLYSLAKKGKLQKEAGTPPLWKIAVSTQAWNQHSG", "assay": "FP competition: displacement of Zα binding to 6-FAM-d(CG)6"}, "[4]": {"molecular_target": "T2, MBD domain of MBD3 (residues 1–72), tag-free (human, UniProt O95983-1 1-72)", "T2 chain": "B1 chain", "assay": "FP"}, "[5]": {"molecular_target": "T3, Zα, tag-free (Z-DNA binding domain of human ADAR1, residues 133-209) (human, UniProt P55265 133-209)", "T3 construct": "Zα domain of human ADAR1, residues 133-209; from pMCSG7-Zα; source: E. coli BL21(DE3), purified (Ni-NTA, TEV cleavage, reverse Ni-NTA, gel filtration); not shown: His6, N-terminal, cleaved", "T3 sequence (looked up)": "T1 sequence (P55265 133-209)", "assay": "fluorescence polarisation; FITC-labelled D/E-rich peptide against titrated protein; 20 mM HEPES-NaOH pH 7.5, 50 mM NaCl, 1 mM DTT; one-site total binding model", "settings": "both partners purified"}, "[6]": {"molecular_target": "T4, Sso7d (UniProt P39476 1-64)", "T4 sequence (looked up)": "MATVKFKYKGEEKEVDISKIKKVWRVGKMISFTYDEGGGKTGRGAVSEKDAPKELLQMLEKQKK", "assay": "fluorescence polarisation; FITC-labelled D/E-rich peptide against titrated protein; 20 mM HEPES-NaOH pH 7.5, 50 mM NaCl, 1 mM DTT; one-site total binding model", "settings": "both partners purified"}, "[7]": {"molecular_target": "T5, Zα (Homo sapiens, UniProt P55265)", "T5 construct": "Zα of human ADAR1; residues 133–209; His6 (pMCSG7, followed by a TEV site) (N, cleaved yes); made in house; host or cells: E. coli BL21(DE3)", "T5 sequence (P55265 133-209)": "T1 sequence (P55265 133-209)", "assay": "SEC / SDS-PAGE complex formation with Zα", "assay_type": "binding", "experimental": "Equimolar amounts (0.1 mM) of Zα and DE-rich peptide were incubated on ice for 1 h in a buffer containing 20 mM HEPES–NaOH pH 7.5, 50 mM NaCl, 1 mM DTT. The mixture was then loaded on a Superdex 30 16/600 column (GE Healthcare) equilibrated in the same buffer. The fractions from the peaks corresponding to Zα alone and the complex of Zα and DE-rich peptide were collected and used for chemical cross-linking.\nTo analyze complex formation of Zα and other proteins (MBD3, MBD or MBDDE), the mixtures were incubated on ice for 1 h in a buffer containing 20 mM Tris–HCl pH 7.5, 50 mM NaCl, 1 mM TCEP. The mixture was then loaded on a Superdex 75 or Superdex 200 increase 10/300 column (GE Healthcare)."}, "[8]": {"test_system": "d(CG)6 duplex", "assay": "Circular dichroism of d(CG)6 DNA conformation", "experimental": "CD spectra were measured at 24°C on a J-815 Spectrometer (JASCO) using a 1 mm path length quartz cell. Prepare 7.5 μM DNA duplex in a buffer consisting of 5 mM HEPES–NaOH pH 7.5, 25 mM NaCl and 1 mM DTT, and in the absence or presence of indicated concentration of proteins. Spectra were recorded between 235 and 305 nm wavelength with a data pitch of 1 nm, bandwidth of 1 nm and with two accumulations at a scanning speed of 10 nm/min.\nFigure 6. Zα can compete with the MBD domain for binding to d(CG)6, but not vice versa. (A) CD spectra of the d(CG)6 duplex in the presence of Zα. CD spectra of (B) the d(CG)6 and (C) the d(C^mG)6 duplex, respectively, in the presence of the MBD domain. (D) Monitoring of the change in CD spectra with the addition of increased amounts of Zα to the pre-incubated mixture of the MBD domain and d(CG)6. (E) Monitoring of the change in CD spectra with the addition of increased amount of the MBD domain to the pre-incubated mixture of Zα and d(CG)6. Spectra are expressed in absolute values of ellipticity in millidegrees (mdeg)."}, "[9]": {"molecular_target": "the molecule itself", "assay": "SEC; purified MBDDE or MBD alone on Superdex 75 10/300 GL against protein standards"}, "[10]": {"assay": "Stability of E. coli-expressed protein", "assay_type": "physicochemical", "settings": "recombinant E. coli-expressed protein"}, "[11]": {"molecular_target": "T6, Zα, tag-free (Z-DNA binding domain of human ADAR1, residues 133-209) (human), P55265", "T6 chain": "T1 sequence (P55265 133-209)", "assay": "fluorescence polarisation; competition: unlabelled peptide added to the pre-incubated mixture of Zα and 6-FAM-d(CG)6 duplex; 20 mM HEPES-NaOH pH 7.5, 50 mM NaCl, 1 mM DTT; dose-response (variable slope) model"}, "[12]": {"molecular_target": "T7, MBD3 (full-length human MBD3; residue 1–291), tag-free (human), O95983", "T7 chain": "B4 chain", "assay": "SEC; purified MBD3 alone on Superdex 200 increase 10/300 GL against protein standards", "settings": "remark: other sources report otherwise"}, "[13]": {"test_system": "endogenous ADAR1", "assay": "FLAG immunoprecipitation of endogenous ADAR1 in 293F cells", "assay_type": "cell-based, human", "settings": "anti-ADAR1 western blot", "experimental": "For expressing FLAG-MBD3 and its mutants in 293F cells (Freestyle™ 293 Expression System; Invitrogen), the DNA fragments were PCR amplified and inserted into HindIII site of pFLAG-CMV-2 vector (Sigma-Aldrich). The plasmids were purified by EasyPrep EndoFree Maxi Plasmid Extraction Kit (BIOTOOLS Co., Ltd, Taiwan) and transiently transfected into 293F cells using 293fectin (Invitrogen) according to the manufacturer's guidelines.\nAfter 48 h posttransfection, the cells were washed with cold PBS and lysed with lysis buffer [50 mM Tris–HCl pH 7.5, 0.3% NP-40, 100 mM potassium acetate, 10% glycerol, 50 U/ml Benzonaes (Novagen) and EDTA-free protease inhibitor cocktail tablet (Roche)]. The lysates were incubated with anti-FLAG M2 Affinity Gel (A2220; Sigma-Aldrich) on a rotation at 4°C overnight. […] The immunoprecipitates were eluted by FLAG peptide (F4799; Sigma-Aldrich) and resolved by a NuPAGE 12% Bis–Tris gel (Invotrogen). Specific antibodies used for western blotting were Rabbit anti-FLAG (1:5000; F7425; Sigma-Aldrich) and rabbit anti-ADAR1 D7E2M (1:1000; 14175; Cell Signaling Technology)."}}, "note": "Where “and” joins values, the source holds several entries; their conditions need not be identical. Identical values can stand only once. Primed or numbered codes have the meaning given here. Where no end group is shown, it is not given here. FITC′ = fluorescein isothiocyanate label", "data": [{"molecule": "poly-L-glutamic acid (1500–5500 Da; Sigma) peptide", "values": [{"measurement": "IC50", "setting": "[1]", "result": "1000 to 3700", "unit": "nM"}]}, {"molecule": "Zα, tag-free (Z-DNA binding domain of human ADAR1, residues 133-209) (from UniProt P55265 133-209) (domain or fragment)", "values": [{"measurement": "stoichiometry N", "setting": "[2]", "result": "1 Zα per MBDDE and 2 Zα per MBDDE"}]}, {"molecule": "poly-L-glutamic acid [polyE]", "values": [{"measurement": "competition with d(CG)6 for binding to Zα (in words)", "setting": "[3]; 6-FAM-d(CG)6", "result": "could compete with Zα binding to d(CG)6, although the efficiency was lower than full-length D/E-rich peptide"}, {"measurement": "concentration at 50% displacement (IC50)", "setting": "[3]; pre-incubated Zα and 6-FAM-d(CG)6, triplicate, 95% CI 3.4–8.9 μg/ml", "result": 5.5, "unit": "µg/mL"}]}, {"molecule": "{FITC′}-DKACAEDDDEEDEEEEEEEPDPDP", "note": "[D/E-rich peptide of MBD3, FITC-labelled]", "values": [{"measurement": "Kd", "setting": "[4]", "result": 21.2, "unit": "nM"}, {"measurement": "Kd", "setting": "[5]", "result": "29.1 ± 1.7", "unit": "nM"}, {"measurement": "Kd", "setting": "[6]", "result": "1100 ± 200", "unit": "nM"}]}, {"molecule": "B1", "values": [{"measurement": "complex formation with Zα on SEC", "setting": "[7]; Zα : MBD 4:1 molar ratio, Superdex 75 10/300 GL", "result": "no complex formation was detected"}, {"measurement": "DNA conformation after binding", "setting": "[8]; CD 235-305 nm, 24°C, 7.5 μM DNA duplex, 5 mM HEPES–NaOH pH 7.5, 25 mM NaCl, 1 mM DTT", "result": "kept the duplex DNA in B-form"}, {"measurement": "competition for binding to d(CG)6 (MBD domain added to pre-incubated Zα and d(CG)6)", "setting": "[8]; CD, increasing MBD domain", "result": "could not compete with the binding of Zα and Z-DNA"}]}, {"molecule": "B2", "values": [{"measurement": "stoichiometry N", "setting": "[9]", "result": 2}]}, {"molecule": "B3", "values": [{"measurement": "efficiency of interaction with Zα relative to D/E peptide", "setting": "[7]; SEC, Zα and MBDDE", "result": "less efficiently than with D/E peptide"}, {"measurement": "complex formation with Zα on SEC", "setting": "[7]; Zα 100 μM : protein 25 μM (4:1), ice 1 h, 20 mM Tris–HCl pH 7.5, 50 mM NaCl, 1 mM TCEP", "result": "could not detect stable complex formation of Zα and MBDDE"}, {"measurement": "complex formation with Zα on SEC", "setting": "[7]; Zα 400 μM : MBDDE 100 μM (4:1), ice 1 h, Superdex 75, pH 7.5", "result": "a small amount of MBDDE and Zα complex was detected"}, {"measurement": "protein stability (in words)", "setting": "[10]", "result": "more sensitive to protease than the MBD domain"}]}, {"molecule": "DKACAEDDDEEDEEEEEEEPDPDP (modifications not checked)", "note": "[D/E-rich peptide of MBD3, unlabelled (full-length D/E-rich peptide)]", "values": [{"measurement": "IC50", "setting": "[11]", "result": 164, "unit": "nM"}]}, {"molecule": "B4", "values": [{"measurement": "stoichiometry N", "setting": "[12]", "result": 2}]}, {"molecule": "B5", "values": [{"measurement": "co-immunoprecipitation of ADAR1-p110 (lacking Zα)", "setting": "[13]; 293F cells, FLAG-IP", "result": "also pulled down"}, {"measurement": "co-immunoprecipitation of endogenous ADAR1", "setting": "[13]; transient expression in 293F cells, anti-FLAG resin", "result": "endogenous ADAR1 was indeed pulled down"}]}]}
